Data taken from publication PMC10063446 (Nature Immunology, 2023).
Changes are numbered by the printed parent chain. Names may count otherwise.

B1: P186-2A8 (antibody, V domains shown)
VH: EVQLVESGGGLVQPGRSLRLSCAASGFTFDDYAMHWVRQAPGKGLEWVSGISWNSGSISYADSVKGRFTISRDNAKNSLYLQMNSLRAEDTALYYCAKALVGGHKYYYGMDVWGQGTTVTVSS
VL: not shown
B2: P5S-2G8 (antibody, V domains shown)
VH: QMQLVQSGAEVKKTGSSVKVSCKASGSTFTHRYLHWVRQAPGQALEWMGWITPFNGDTNYAQKFQDRVTITRDGSMSTVYMDLSSLRSEDTAMYYCAAGARWGDSYYYYGMDVWGQGTAVTVSS
VL: QSALTQPPSASGSPGQSVTISCTGTSSDVGGYNYVSWYQQHPDKAPKLMIYEVSKRPSGVPDRFSGSKSGNTASLTVSGLQAEDEADYYCSSYAGNNNLVFGTGTKVTVL
B3: P195-1B8 (antibody, V domains shown)
VH: QVTLRESGPALVKPTQTLTLTCTFSGFSLSTSGMCVSWIRQPPGKALEWLALIDWDDDKYYSTSLKTRLTISKDTSKNQVVLTMTNMDPVDTATYYCARSWVGGGVDVWGQGTTVTVSS
VL: not shown
B4: P5S-1B11 (antibody, V domains shown)
VH: QVQLVQSGAEVKKPGASVKLSCRASGYTFTSYFMHWVRQAPGQGLEWMGVINPGGGGTSYAQKFQGRVTMTRDTSTSTVYMELSSLRSEDTAVYYCARYYDSIDNFDYWGQGTLVTVSS
VL: DIQMTQSPSSLSASVGDRVTITCRASQGIRNDLGWYQQKPGKAPKCLIYAASSLQSGVPSRFSGSRSGTEFTLTISSLQPEDFATYYCLQHNTYPQLTFGGGTKVEIK
B5: P5-2B9 (antibody, V domains shown)
VH: EVQLVQSGAEVKKPGESLKISCKGSGHSFTSFWIGWVRQMPGKGLEWMGIIYPGDSETRYSPSFQGQVTISVDKSIFTAYLQWSSLKASDSAMYYCARISGKGVGWFDPWGQGTLVTVSS
VL: SYVLTQPPSVSVAPGQTARITCGGNNIGSKSVHWYQQKPGQAPVLVIYYDSDRPSGIPERFSGSNSGNTATLTISRVEAGDEADYYCQVWHSSSDHVVFGGGTKLTVL
B6: P10S-1G4 (antibody, V domains shown)
VH: QVQLQESGPGLVKPSQTLSLTCTVSGDSISSGDYYWIWIRQHPGKGLEWIGYIYYSGSTYYNPSLKSRVTISVDTSKNQFSLKLSSVTAADTAVYYCARVEYCSGGSCRRHNWFDPWGQGTLVTVSS
VL: QSVLTQPPSVSGAPGQRVTISCTGSSSNIGAGYDVHWYQQLPGTAPKLLIYGNSNRPSGVPDRFSGSKSGTSASLAITGLQAEDEADYYCQSYDSSLSGVVFGGGTKLTVL
B7: P195-2B9 (antibody, V domains shown)
VH: QVQLQESGPGLVKPSETLSLTCTVSGGSSSSHFWSWIRQPPGKGLEWIGYIYYGGNTNYNPSLKSRVTISVDTSKSQFSLKLSSVTAADTAVYYCARHHYYYDSSDFRLKAGYYFDYWGQGTLVAVSS
VL: B6 VL with Y51F, G52D, S54N, N55D, G70D, S98I, G99S, V100W, V110L
B8: P186-2C12 (antibody, V domains shown)
VH: EVQLVESGGGVVRPGGSLRLSCAASGFTFDDYGMSWVRQAPGKGLEWVSGIYWNGGITGYADSLKGRFTISRDNAKNSLYLQMNSLRAEDTALYHCARDRGSGYYIFDYWGQGTLVTVSS
VL: not shown
B9: P2-1G9 (antibody, V domains shown)
VH: EVQLVESGGGLVQPGGSLRLSCAASGFTFSTYWMSWVRQAPGKGLEWVANIKQDGSDKYYVDSVKGRFTISRDNAKNSLYLQMNSLRVEDTAVYYCARDLGILWFGELPNFDPWGQGTLVTVSS
VL: DIQMTQSPSSLSASVGDRVTITCRASQGISNSLAWYQQKPGKAPKLLLYAASTLESGVPSRFSGSGSGTDYTLTISSLQPEDFATYYCQQYYSPPPRTFGQGTKVEIK
B10: P2S-2E8 (antibody, V domains shown)
VH: B9 VH with T31S, D57E, V88A
VL: B9 VL with T53R, P94T
B11: P5-1H1 (full IgG1) (antibody, V domains shown)
VH: EVQLVESGGGLIQPGGSLRLSCAASGITVSSNYMTWVRQPPGKGLEWVSVIYSGGSTFYADPVKGRFTISRDNSRNTLYLQMNSLRAEDTAVYYCARDLQVYGMDVWGQGTTVTVSS
VL: DIQLTQSPSFLSASVGDRVTITCRASQGISNFLAWYQQKPGKAPKLLIYAASTLQGGVPSTFSGSGSGTEFTLTISSLQPEDFATYYCQHLNDYPLFGGGTRVEIK
B12: P5-1C8 (full IgG1) (antibody, V domains shown)
VH: EVQLVESGGGLIQPGGSLRLSCAASEIIVSRNYMNWVRQAPGKGLEWVSVIYSGGSTFYADSVKGRFTISRDNSENTLYLQMNSLRAEDTAVYYCARGYGDYYFDYWGRGTLVTVSS
VL: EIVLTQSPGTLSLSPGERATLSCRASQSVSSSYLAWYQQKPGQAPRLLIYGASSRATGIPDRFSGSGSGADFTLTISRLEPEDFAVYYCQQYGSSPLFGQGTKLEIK
B13: P2-1B1 (full IgG1) (antibody, V domains shown)
VH: QVQLVQSGAEVKRPGSSVKVSCKASGGTFSSYAISWVRQAPGQGPEWMGGIIPIFGTPHNAQKFQGRVTITADESTSTAYMELSSLRSEDTAMYYCSRTKGDILTGYTDYYFDSWGQGTLVTVSS
VL: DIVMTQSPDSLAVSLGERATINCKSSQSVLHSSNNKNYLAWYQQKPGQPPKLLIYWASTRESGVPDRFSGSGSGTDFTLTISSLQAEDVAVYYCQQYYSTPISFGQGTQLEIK
B14: P5-1H1 Fab (Fab, V domains shown)
VH: B11 VH
VL: B11 VL

Biological target: T1, recombinant RBD protein of wild-type SARS-CoV-2 (ELISA antigen) (SARS-CoV-2 wild-type, UniProt P0DTC2)
Assay: not given
Details: not given

Binder	binding result
B1	binds
B2	binds
B3	binds
B4	binds
B5	binds
B6	binds
B7	binds
B8	binds
B9	binds
B10	binds

Biological target: recombinant wild-type SARS-CoV-2 S trimer (ELISA antigen) (SARS-CoV-2 wild-type, UniProt P0DTC2)
Assay: not given
Details: not given

Binder	binding result
B1	binds
B2	binds
B3	binds
B4	binds
B5	binds
B6	binds
B7	binds
B8	binds
B9	binds
B10	binds

Biological target: SARS-CoV-2 RBD immobilised on the CM5 chip (SARS-CoV-2 wild-type (assumed))
Assay: SPR
Details: both partners purified

Binder	binding result
B11	binds
B12	binds
B13	binds

Biological target: T1, recombinant RBD protein of wild-type …
Assay: ELISA
Details: one partner purified

Binder	binding result
B11	binds
B12	binds
B13	binds

Biological target: T2, SARS-CoV-2 wild-type RBD (SARS-CoV-2 wild-type)
T2 construct: also called WT-RBD
Assay: crystal structure
Details: both partners purified

Binder	binding result
B14	binds
